From IntAct's records for PubMed 24525233

B1: Transcription cofactor vestigial-like protein 4 (Homo sapiens), Q14135 (parent)
chain: METPLDVLSRAASLVHADDEKREAALRGEPRIQTLPVASALSSHRTGPPPISPSKRKFSMEPGDEDLDCDNDHVSKMSRIFNPHLNKTANGDCRRDPRERSRSPIERAVAPTMSLHGSHLYTSLPSLGLEQPLALTKNSLDASRPAGLSPTLTPGERQQNRPSVITCASAGARNCNLSHCPIAHSGCAAPGPASYRRPPSAATTCDPVVEEHFRRSLGKNYKEPEPAPNSVSITGSVDDHFAKALGDTWLQIKAAKDGASSSPESASRRGQPASPSAHMVSHSHSPSVVS

Variants of: B1
Conditions: with tead4_human TEAD4, Q15561
Sequence of tead4_human TEAD4, Q15561 (Q15561 whole entry): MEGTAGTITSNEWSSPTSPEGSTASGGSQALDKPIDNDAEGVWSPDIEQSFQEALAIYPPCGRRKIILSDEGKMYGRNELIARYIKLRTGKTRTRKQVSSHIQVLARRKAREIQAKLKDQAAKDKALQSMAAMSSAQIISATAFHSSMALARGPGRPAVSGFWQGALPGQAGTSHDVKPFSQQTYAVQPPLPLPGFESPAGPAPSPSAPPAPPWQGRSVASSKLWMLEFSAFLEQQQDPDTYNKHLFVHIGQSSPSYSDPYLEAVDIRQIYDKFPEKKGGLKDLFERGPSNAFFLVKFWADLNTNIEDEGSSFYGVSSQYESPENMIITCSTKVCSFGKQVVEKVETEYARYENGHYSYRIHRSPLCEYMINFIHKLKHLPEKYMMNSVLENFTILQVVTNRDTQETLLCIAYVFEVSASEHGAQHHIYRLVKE

Row | Variant | effect of a mutation on the interaction
1 | W249A | decreasing interaction

Variants of: B1
Conditions: with tead4_human TEAD4, Q15561
Remark: another data set of the same source

Row | Variant | effect of a mutation on the interaction
2 | H240A | decreasing interaction
3 | L245A | decreasing interaction
4 | H212A;F213A;H240A;F241A | disrupting interaction
5 | H240A;F241A | decreasing interaction
